This series can be described thus: yeast display, Sf9 membrane polyspecificity reagent, FACS + sequencing; frameworks hold sequencing errors. In outline:
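A nanobody's polyreactivity label depends on the gate it was sorted from. Yeast display cells were stained with 10% biotinylated, detergent-solubilized Sf9 membrane reagent for 1 hour at 4 °C, enriched on streptavidin microbeads and sorted by FACS. The low and high (top ~1%) gates were set on anti-HA fluorescence for expression and streptavidin fluorescence for reagent binding.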
As for “QVQLVESGGGLVQAGGSLRLSCAASGSIFYAYAMGWYRQAPGKERELVAAISASGGSTYYADSVKGRFTISRDNAKNTVYLQMNSLKPEDTAVYYCAALTYSTYQTAYRRYPKNKYWGQGTQVTVSS”, the “polyreactivity (PSR sort gate)” value is “high polyreactivity”.

“QVQLVESGGGLVQAGGSLRLSCAASGSIFYAYAMGWYRQAPGKERQLVAAIRSSDSRTYYADSVKGRFTISRDNAKNTVYLQMNSLKPEDTGVYYCDADGSRKVKFDYWGQGTQVTVSS”: the “polyreactivity (PSR sort gate)” value was “high polyreactivity”.

As for “QVQLVESGGGLVQAGGSLRLSCAASGSIFYAYAMGWYRQAPRKERELVAAITRSGGSTYYADSVKGRFTISRDNAKNTVYLQMNSLKPEDTAVYYCAAVSRSRRMDFWGQGTQVTVSS”, the “polyreactivity (PSR sort gate)” value was “high polyreactivity”.

Turning to “QVQLVESGGGLVQAGGSLRLSCAASGSIFYAYTMGWYRQAPGKERELVASITKSGGSTYYADSVKGRFTISRDNAKNTVYLQMNSLKPEDTAVYYCAAAFNRYGTTSYWYRHYYWGQGTQVTVSS”, the “polyreactivity (PSR sort gate)” value is reported as “high polyreactivity”.

For the sequence “QVQLVESGGGLVQAGGSLRLSCAASGSIFYDKAMGRYRQAPGKEREFVAAISLRTGRTYYADSVKGRFTISRDNAKNTVYLQMNSLKPEDTAVYYCAARGYYGPKYYYWGQGTQVTVSS”, the “polyreactivity (PSR sort gate)” value is reported as “high polyreactivity”.

In the case of “QVQLVESGGGLVQAGGSLRLSCAASGSIFYDNAMGWYRQAPGNERELVAAIDDSDRTNYADSVKGRFTITRDNAKNTVYLQMNSLKPEDTAVYYCARDRWKWHYGYDYWGQGTQVTVSS”, the “polyreactivity (PSR sort gate)” value was “low polyreactivity”.

As for “QVQLVESGGGLVQAGGSLRLSCAASGSIFYDYAMGWYRQAPGKEREFVAAITSSGGSTYYADSVKGRFTISRDNAKNTVYLQMNSLKPEDTAVYYCAAEDSDAYFIYGYWGQGTQVTVSS”, the “polyreactivity (PSR sort gate)” value was “low polyreactivity”.

Regarding “QVQLVESGGGLVQAGGSLRLSCAASGSIFYDYVMGWYRQAPGKERELVAAITRGGRTYYADSVKGRFTISRDNAKNTVYLQMNSLKPEDTAVYYCNAGRHQGYDWGQGTQVTVSS”, the “polyreactivity (PSR sort gate)” value was “high polyreactivity”.

Take “QVQLVESGGGLVQAGGSLRLSCAASGSIFYENAMGWYRQAPGKERELVAAISWNAGSTYYADSVKGRFTISRDNAKNTVYFQMNSLKPEDTAVYYCATTADGIRYDYWGQGTQVTVSS”: the “polyreactivity (PSR sort gate)” value is listed as “low polyreactivity”.

Regarding “QVQLVESGGGLVQAGGSLRLSCAASGSIFYENMGWYRQSPRKERELVASISWSGTSTYADSVKGRFTISRDNAKNTVYLQMNSLKPEDSAVYYCAAGKNGYTYSRSYSYGYWGQGTQVTVSS”, the “polyreactivity (PSR sort gate)” value is “high polyreactivity”.

“QVQLVESGGGLVQAGGSLRLSCAASGSIFYEYAMGWYRKAPGKEREFVAAISSSGGSTYYADSVKGRFTISRDNAKNTVYLQMNSLKPEDTAVYYCATQSSVLSWWYDYWGQGTQVTVSS”: the “polyreactivity (PSR sort gate)” value is “low polyreactivity”.

As for “QVQLVESGGGLVQAGGSLRLSCAASGSIFYEYDMGWYRQAPGKERELVAALDGSADSTYYADSVKGRFTISRDNAKNTVYLQMNSLKPEDTAVYYCNTRYFRWDTEYGYWGQGTQLTVSS”, the “polyreactivity (PSR sort gate)” value is listed as “low polyreactivity”.

Turning to “QVQLVESGGGLVQAGGSLRLSCAASGSIFYFNGLGWSRQSPGKEREFVAAITWGDGSTYYADSVKGRFTISRDNAKNTVYLQMNSLKPADTAVYYCAAVLLIFKYVPRYDYWGQGSQVTVSS”, the “polyreactivity (PSR sort gate)” value is recorded as “low polyreactivity”.

In the case of “QVQLVESGGGLVQAGGSLRLSCAASGSIFYFYAMGWYRQAPGKERELVAAISWSGGSTYYADSVKGRFTISRDNAKNTVYLQMNSLKPEDTAVYYCNAADYWYWENDYWGQGTQVTVSS”, the “polyreactivity (PSR sort gate)” value is listed as “low polyreactivity”.

Turning to “QVQLVESGGGLVQAGGSLRLSCAASGSIFYFYTMGWYRQAPGKERELVASITYSGGRTYYADSVKGRFTISRDNAKNTVYLQMNSLKPEDTAVYYCAVRGYRRYWGQGTQVTVSS”, the “polyreactivity (PSR sort gate)” value is on record as “high polyreactivity”.

In the case of “QVQLVESGGGLVQAGGSLRLSCAASGSIFYGNALGWYRQAPGKEREFVAAISSSGGSTYYADSVKGRFTISRDNAKNTVYLQMNSLKPEDTAVYYCAARGPKHTHSRRYFTEYDYWGQGTQVTVSS”, the “polyreactivity (PSR sort gate)” value is “low polyreactivity”.

For “QVQLVESGGGLVQAGGSLRLSCAASGSIFYGNAMGWYRQAPGKERELVAAIDGTGASTYYADSVKGRFTISRDNAKNTVYLQMNSLKPEDTAVYYCNKALTSKDYPVRTVERDYWGQGTQVTVSS”, the “polyreactivity (PSR sort gate)” value is “low polyreactivity”.

For the sequence “QVQLVESGGGLVQAGGSLRLSCAASGSIFYGNAMGWYRQAPGKERELVAAISESGGSTYYADSVKGRFTISRDNAKNTVYFQMNSLKPEDTAVYYCNSEAWGYYWWWGYDYWGHGTQVTVSS”, the “polyreactivity (PSR sort gate)” value is given as “low polyreactivity”.

With “QVQLVESGGGLVQAGGSLRLSCAASGSIFYGYAMGWYRQAPGKERELVAAISWTGGRTYYADSVKGRFTISRDNAKNTVYLQMNSLKPEDTAVYYCNVRRYSVVSGGYCGQGTQVTVSS”, the “polyreactivity (PSR sort gate)” value was “high polyreactivity”.

As to “QVQLVESGGGLVQAGGSLRLSCAASGSIFYGYAMGWYRQSPGKERELVAAISSTGVRSYYADSVKGRFTISRDNAKNTVYLQMNSLKPEDSEVYYCAARRYGPGRYQEDYWGQGSQVTVSS”, the “polyreactivity (PSR sort gate)” value was “high polyreactivity”.

In the case of “QVQLVESGGGLVQAGGSLRLSCAASGSIFYGYTMGWYRQEPGKERELVAAIRKSGGSTNYADSVKGRFTISRDNAKNTVFLQMNSLKPEDTAVYYCAAAYYRGRGYYWGQGTQVTVSS”, the “polyreactivity (PSR sort gate)” value is listed as “high polyreactivity”.

For the sequence “QVQLVESGGGLVQAGGSLRLSCAASGSIFYGYVMGCYTQAPGKERELVAAISGGGSTNYADSVKGRFTISRDNAKNTVYLQMNSLKPEDTAVYYCNTEDWAVGSPEVEYEYDYWGQGTQVTVSS”, the “polyreactivity (PSR sort gate)” value is “low polyreactivity”.

Take “QVQLVESGGGLVQAGGSLRLSCAASGSIFYHNAMGWYRQAPGKERELVAAITWSGSTTYYADSVKGRFTISRDNAKNTVYLQMNSLKPEDTAVYYCNGGYRHGHYDYWGQGTQVTVSS”: the “polyreactivity (PSR sort gate)” value is given as “low polyreactivity”.

Consider “QVQLVESGGGLVQAGGSLRLSCAASGSIFYHNAMGWYRQAPGKERELVARISSRGGSTYYADSVKGRFTISRDNAKNTVYLQMNSLKPEDTAVYYCNNAYRYTSAYDYWGQGTQVTVSS”, for which the “polyreactivity (PSR sort gate)” value is on record as “high polyreactivity”.

“QVQLVESGGGLVQAGGSLRLSCAASGSIFYHNAMGWYRRAPGKEREFVAAITGSGGSTYYADSVKGRFTISRDNAKNTVYLQMNSLKPEDTAVYYCASVGYTKWWISWGYDYWGQGTQVTVSS”: the “polyreactivity (PSR sort gate)” value is recorded as “low polyreactivity”.

As to “QVQLVESGGGLVQAGGSLRLSCAASGSIFYHYAMGLYRQAPGKERELVAAISGSGGSTYYADSVKGRFTISRDNAKNTVYLQMNSLKPEDTAVYYCAADTSRYHYTRYFFDSDYWGQGTQVTVSS”, the “polyreactivity (PSR sort gate)” value is “low polyreactivity”.

In the case of “QVQLVESGGGLVQAGGSLRLSCAASGSIFYHYAMGWYRQAPGKERELVAAISSGGSTSYADSVKGRFTISRDNAKNTVYLQMNSLKPEDTAVYYCNARRIRSRSWKYDYWGQGTQVTVSS”, the “polyreactivity (PSR sort gate)” value is recorded as “low polyreactivity”.

Consider “QVQLVESGGGLVQAGGSLRLSCAASGSIFYHYAMGWYRQAPGKERELVAGITSSGDRTHYADSVKGRFTISRDNAKNSVYLQMNSLKPEDTAVYYCNTATIHGTAYDYWGQGTQVTVSS”, for which the “polyreactivity (PSR sort gate)” value is “low polyreactivity”.

Regarding “QVQLVESGGGLVQAGGSLRLSCAASGSIFYHYAMGWYRQAPGKERELVAGITSSGDRTHYADSVKGRFTISRDNAKNTVYLQMNSLKPEDTAVYYCNTATIHGTAYDYWGQGTQVTVSS”, the “polyreactivity (PSR sort gate)” value is “low polyreactivity”.

As for “QVQLVESGGGLVQAGGSLRLSCAASGSIFYINAMGCYRQAPGKEREMVAAITSDGSTYYADSVKGRFTISRDNAKNTVYLQMNSLNPEDTAVYYCAADLTSDQYMYYWYWFYSWGQGTQVPVSS”, the “polyreactivity (PSR sort gate)” value is recorded as “low polyreactivity”.

On to “QVQLVESGGGLVQAGGSLRLSCAASGSIFYINAMGWYRQAPGKEREFVARISWRSGSTSYADSVKGRFTISRDNAKNTVYLQMNSLKPEDTAVYYCNAGDFANDNGGRRDQFTWEDEYWGQGTQVTVSS”, for which the “polyreactivity (PSR sort gate)” value is “low polyreactivity”.

Consider “QVQLVESGGGLVQAGGSLRLSCAASGSIFYINAMGWYRQAPGKERELVAAIRSGGSTNYADSVKGRFTISRDNAKNTVYLQMNSLKPEDTAVYYCNARSRSYVPYYYWGQGTQVTVSS”, for which the “polyreactivity (PSR sort gate)” value is recorded as “high polyreactivity”.

Consider “QVQLVESGGGLVQAGGSLRLSCAASGSIFYINDMGWYRQAPGKERELVAAISWSGGTTYYADSVKVRFTISRDNAKNTVYLQMNSLKPEDTAVYYCATDYFFLFPWGLSDYWGQGTQVTVSS”, for which the “polyreactivity (PSR sort gate)” value is recorded as “low polyreactivity”.

As for “QVQLVESGGGLVQAGGSLRLSCAASGSIFYINDMGWYRQAPGTERELVAAISWSGGTTYYADSVKGRFTISRDNAKNTVYLQMNSLKPEDTAVYYCATDSFFLFPWGLSDYWGQGTQVTVSS”, the “polyreactivity (PSR sort gate)” value is listed as “low polyreactivity”.

In the case of “QVQLVESGGGLVQAGGSLRLSCAASGSIFYKNAMAWYRQAPGKERELVAAITWSGGSTYYADSVKGRFTISRDNAKNTVYLHMNSLKPEDTAVYYCAAGLYRYRKYGYWGQGTQVTVSS”, the “polyreactivity (PSR sort gate)” value is “low polyreactivity”.

For “QVQLVESGGGLVQAGGSLRLSCAASGSIFYLYAMGWYRQAPGKEREFVAAITSSSGSTHYADSVKGRFTISRDNAKNTVYYQMNSLKPEDTAVYYCAKDYGPWTYDYWGQGTQVTVSS”, the “polyreactivity (PSR sort gate)” value is given as “low polyreactivity”.

In the case of “QVQLVESGGGLVQAGGSLRLSCAASGSIFYLYAMGWYRQAPGKERELVAGIRYRGGSTYYADSVKGRFTISRDNAKNTVYLQMNSLKPEDTAVYYCAAEYGDGRYWSYDYWGQGTQVTVSS”, the “polyreactivity (PSR sort gate)” value is given as “high polyreactivity”.

In the case of “QVQLVESGGGLVQAGGSLRLSCAASGSIFYLYAMGWYRQEPGKERELVAAITSGDSTTYADSVKGRFTISRDNAKNTVYLQMNSLIPEDTAVYYCAADWPGLVGYHNSAENDYWGQGTQVTVSS”, the “polyreactivity (PSR sort gate)” value was “low polyreactivity”.

As to “QVQLVESGGGLVQAGGSLRLSCAASGSIFYLYTMGWYRQAPGKERELVASITYSGGTYYADSVKGRFTISRDNAKNTVYLQMNSLKPEDTAVYYCNAHIPTNRSYVPEVRGEYDYWGQGTQVTVSS”, the “polyreactivity (PSR sort gate)” value is reported as “low polyreactivity”.

Regarding “QVQLVESGGGLVQAGGSLRLSCAASGSIFYNAMGWYRQAPGKERELVAAISYRGGRTYYADSVKGRFTISRDNAKNTVYLQMNSLKPEDTAVYYCAADSTVGRYPYDYWGQGTQVTVSS”, the “polyreactivity (PSR sort gate)” value is “high polyreactivity”.

Consider “QVQLVESGGGLVQAGGSLRLSCAASGSIFYNAMGWYRQAPGKERELVAAITSGGRTYYADSVKGRFTISRDNAKNTVYLQMNSLKPEDTAVDYCAADVRRVRVGKYDYWGQGTQVTVSS”, for which the “polyreactivity (PSR sort gate)” value is given as “high polyreactivity”.
